In article PMC5430726, “Grb2 carboxyl-terminal SH3 domain can bivalently associate with two ligands, in an SH3 dependent manner” (Scientific Reports, 2017):

Key:
[1] = target: T1, Grb2 C-terminal SH3 domain (SH3C), residues 155-217 (mouse, UniProt Q60631 155-217); assay: ITC; free Grb2 SH3C in the cell (20 uM for the peptide, 40 uM for Vav) titrated with 280 uM SLP65 peptide or 600 uM Vav SH3N; 20 mM sodium phosphate, 100 mM NaCl, pH 6.0, 25 °C; one-site binding model; settings: both partners purified
T1 construct: Uniformly 15N or 15N,13C labelled in the NMR titrations; monomer by glutaraldehyde cross-linking and SEC; also called Grb2 SH3C; Grb2 CSH3 domain; source: E. coli, purified (Ni2+-NTA chromatography); not shown: His tag, N-terminal, cleaved
T1 sequence (Q60631 155-217): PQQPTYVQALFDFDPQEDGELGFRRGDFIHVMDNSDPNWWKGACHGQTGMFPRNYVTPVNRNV

[2] = target: T1, Grb2 C-terminal SH3 domain (SH3C), …; assay: ITC; SLP65 peptide titrated into the preformed Grb2 SH3C-Vav SH3N binary complex (gives Complex 1, Vav displaced); 20 mM sodium phosphate, 100 mM NaCl, pH 6.0, 25 °C; settings: both partners purified

B1: SLP65 peptide Ace-EKAPMVNRSTKPNSSS-NH2 (residues 201-216 of mouse SLP65) (peptide)
peptide: Ac-EKAPMVNRSTKPNSSS-NH2
notes: SLP65, mouse, residues 201-216; also called synthetic peptide; source: synthetic peptide
In the case of B1, the Kd [1] is reported as 3.55 ± 0.2 µM, the dH [1] is reported as -6.67 ± 0.15 kcal/mol and the “stoichiometry N” value [1] is reported as 0.87 ± 0.02. For the same binder, the “Kd with Vav SH3N prebound to Grb2 SH3C (Vav displaced)” value [2] was 33.3 ± 1.1 µM and the “dH with Vav SH3N prebound to Grb2 SH3C (Vav displaced)” value [2] was -5.9 ± 0.04 kcal/mol.
